Reference: patent publication US7824897B2, “Modified tumor necrosis factor-alpha converting enzyme and methods of use thereof” (Schering Corp., priority 2002, dated 2010)
Positions count from the first letter of the chain named. Numbers in names are those of the source.

Tests used:
Format in all cases: physicochemical
[1] = target: T1, TACE (Homo sapiens, UniProt P78536, N452Q/S266A); test: Stability of TACE (auto-proteolysis) on storage at 4 degrees Celsius, SDS-PAGE; settings: TACE 15 mg/ml, seven days
T1 construct: Only the catalytic domain was purified; GS linker + His6 (C); made in house; host or cells: Trichoplusia ni (High5) cells, baculovirus
Experimental: Stability of TACE: The stability of TACE was examined under several buffer conditions at pH 7.5. Twenty microliter aliquots of TACE at 15 mg/ml were desalted over P-6 spin columns (BioRAD, Hercules, Calif.) that had been equilibrated in: • (a) 25 mM Tris, 0.15M NaCl; • (b) 25 mM Tris; or • (c) 25 mM Tris plus N-{D,L-2-(hydroxyaminocarbonyl)methyl-4-methylpentanoyl}-L-3-amino-2-dimethylbutanoyl-L-alanine, 2-(amino)ethyl amide.
The stability of the TACE protein was evaluated after storage at 4 degrees Celsius for seven days. After incubating the TACE polypeptide under the three conditions listed above, Sodium Dodecyl Sulfate PolyAcrylamide Gel Electrophoresis (SDS-PAGE) was performed. […] Moreover, the sequencing data indicated the presence of a single cleavage site at 352Y-V353 of SEQ ID NO: 2.

[2] = target: T1, TACE; test: Stability of TACE and TACE mutants under different storage conditions, SDS-PAGE; settings: 25 mM Tris pH 7.5, 4 degrees Celsius, 3 hours
Experimental: (§1) Stability of TACE and TACE mutants: To test for stability under different storage conditions, 20 ul of TACE protein, at 15 mg/ml, was desalted over BIO-RAD P-6 columns equilibrated at pH 7.5 in: • (a) 25 mM Tris, 0.15M NaCl; • (b) 25 mM Tris+1 mM N-{D,L-2-(hydroxyaminocarbonyl)methyl-4-methylpentanoyl}-L-3-amino-2-dimethylbutanoyl-L-alanine, 2-(amino)ethyl amide; or • (c) 25 mM Tris.
(§2) One microliter aliquots were analyzed by SDS-PAGE after storing them for 3 hours, or 17 days at 4 degrees Celsius. […] In direct contrast, all constructs were stable in either 0.15M NaCl, or 1 mM N-{D,L-2-(hydroxyaminocarbonyl)methyl-4-methylpentanoyl}-L-3-amino-2-dimethylbutanoyl-L-alanine, 2-(amino)ethyl amide.

[3] = test system: TACE; test: as above; settings: 25 mM Tris pH 7.5, 4 degrees Celsius, 17 days
Experimental: as §1, §2

For `CC(C)CC(CC(=O)NO)C(=O)N[C@H](C(=O)N[C@@H](C)C(=O)NCCN)C(C)(C)C` (stereo partly drawn) [N-{D,L-2-(hydroxyaminocarbonyl)methyl-4-methylpentanoyl}-L-3-amino-2-dimethylbutanoyl-L-alanine, 2-(amino)ethyl amide, reference compound], the “SDS-PAGE bands after storage with inhibitor” value ([1]; 25 mM Tris pH 7.5, 1:1.5 molar ratio enzyme:inhibitor, 4 degrees Celsius) was “only a single band having a molecular weight of 30 Kd was observed”.

B1: TACE: native tumor necrosis factor-alpha converting enzyme catalytic domain (SEQ ID NO: 6), with GS linker and polyHis tag (protein, listed as Homo sapiens)
chain: RADPDPMKNTCKLLVVADHRFYRYMGRGEESTTTNYLIELIDRVDDIYRNTAWDNAGFKGYGIQIEQIRILKSPQEVKPGEKHYNMAKSYPNEEKDAWDVKMLLEQFSFDIAEEASKVCLAHLFTYQDFDMGTLGLAYVGSPRANSHGGVCPKAYYSPVGKKNIYLNSGLTSTKNYGKTILTKEADLVTTHELGHNFGAEHDPDGLAECAPNEDQGGKYVMYPIAVSGDHENNKMFSQCSKQSIYKTIESKAQECFQERSNKV
modifications: GS linker and polyHis tag
For B1, the “SDS-PAGE bands after storage without high salt or inhibitor” value ([1]; 25 mM Tris pH 7.5, 4 degrees Celsius) was “two additional fainter bands”, the “Proteolysis by SDS-PAGE in the absence of salt” value (“Proteolysis by SDS-PAGE” below) [2] was “substantial proteolysis” and the “Proteolysis by SDS-PAGE” value [3] was “completely proteolyzed”.

B2: V353G: modified TACE catalytic domain, Val353 replaced with glycine (SEQ ID NO: 20) (protein, listed as Homo sapiens)
chain: B1 chain with V139G
In the case of B2, the “Proteolysis by SDS-PAGE” value [3] is reported as “highly resistant to auto-proteolysis”.
